B1: SNX8 (parent)
chain: LHQETQLIHVYLPLTSHILRAFVN
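Note: lentivirally expressed fusions sorted by FACS into six bins by GFP to DsRed ratio, PSI derived from sequencing read proportions per bin multiplied by bin number.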

In the series the parent is B1. The experiment in a line: protein stability index of a GFP-peptide fusion (GPS, HEK-293T) (PSI 1-6); higher = more stable. Conditions: c terminus: a fixed tail appended.
In the case of LYQETQLIHVYLPLTSHILRAFVN [H2Y], the protein stability index is 2.96.

Turning to LVQETQLIHVYLPLTSHILRAFVN [H2V], the protein stability index worked out at 2.6.

On to LTQETQLIHVYLPLTSHILRAFVN [H2T], for which the protein stability index was 1.68.

Consider LWQETQLIHVYLPLTSHILRAFVN [H2W], for which the protein stability index came out at 3.21.

LHQETQLCHVYLPLTSHILRAFVN [I8C]: the protein stability index was found to be 2.87.

LHQETQLKHVYLPLTSHILRAFVN [I8K]: the protein stability index turned out to be 2.3.

For the variant LHQETQLGHVYLPLTSHILRAFVN [I8G], the protein stability index came to 1.42.

LHQETQLFHVYLPLTSHILRAFVN [I8F]: the protein stability index amounted to 2.5.

Regarding LHQETQLEHVYLPLTSHILRAFVN [I8E], the protein stability index was 2.44.

Regarding LHQETQLAHVYLPLTSHILRAFVN [I8A], the protein stability index amounted to 2.03.

In the case of LHQETQLDHVYLPLTSHILRAFVN [I8D], the protein stability index worked out at 2.22.

Regarding LHQETQMIHVYLPLTSHILRAFVN [L7M], the protein stability index was 2.9.

As for LHQETQPIHVYLPLTSHILRAFVN [L7P], the protein stability index was determined as 3.31.

With LHQETQCIHVYLPLTSHILRAFVN [L7C], the protein stability index was 2.44.

Regarding LHQETQKIHVYLPLTSHILRAFVN [L7K], the protein stability index worked out at 2.32.

As for LHQETQSIHVYLPLTSHILRAFVN [L7S], the protein stability index is 2.37.

Regarding LHQETQAIHVYLPLTSHILRAFVN [L7A], the protein stability index is 2.53.

In the case of LHQETQEIHVYLPLTSHILRAFVN [L7E], the protein stability index worked out at 1.87.

Consider LHQETQNIHVYLPLTSHILRAFVN [L7N], for which the protein stability index was found to be 2.1.

As to LHQETQGIHVYLPLTSHILRAFVN [L7G], the protein stability index was 2.15.

As to LHQETQTIHVYLPLTSHILRAFVN [L7T], the protein stability index was 3.64.

Consider LHQETQQIHVYLPLTSHILRAFVN [L7Q], for which the protein stability index was 2.71.

For LHQETQIIHVYLPLTSHILRAFVN [L7I], the protein stability index came to 2.73.

LHQETQYIHVYLPLTSHILRAFVN [L7Y]: the protein stability index came to 1.91.

Turning to LHQETQDIHVYLPLTSHILRAFVN [L7D], the protein stability index came to 2.17.

As to LHQETQHIHVYLPLTSHILRAFVN [L7H], the protein stability index is 1.98.

For LHQETQRIHVYLPLTSHILRAFVN [L7R], the protein stability index worked out at 4.

LHFETQLIHVYLPLTSHILRAFVN [Q3F]: the protein stability index was 3.79.

On to LHGETQLIHVYLPLTSHILRAFVN [Q3G], for which the protein stability index worked out at 2.67.

LHSETQLIHVYLPLTSHILRAFVN [Q3S]: the protein stability index worked out at 3.32.

As for LHMETQLIHVYLPLTSHILRAFVN [Q3M], the protein stability index was found to be 2.15.

Consider LHAETQLIHVYLPLTSHILRAFVN [Q3A], for which the protein stability index worked out at 3.04.

Take LHHETQLIHVYLPLTSHILRAFVN [Q3H]: the protein stability index is 2.62.

On to LHYETQLIHVYLPLTSHILRAFVN [Q3Y], for which the protein stability index is 3.12.

In the case of LHVETQLIHVYLPLTSHILRAFVN [Q3V], the protein stability index was found to be 2.47.

For LHWETQLIHVYLPLTSHILRAFVN [Q3W], the protein stability index was 2.73.

For LHIETQLIHVYLPLTSHILRAFVN [Q3I], the protein stability index was found to be 3.42.

With LHCETQLIHVYLPLTSHILRAFVN [Q3C], the protein stability index stood at 2.06.

For the variant LHDETQLIHVYLPLTSHILRAFVN [Q3D], the protein stability index was 2.8.

LHKETQLIHVYLPLTSHILRAFVN [Q3K]: the protein stability index amounted to 4.06.

Consider LHPETQLIHVYLPLTSHILRAFVN [Q3P], for which the protein stability index amounted to 2.31.

For LHRETQLIHVYLPLTSHILRAFVN [Q3R], the protein stability index stood at 2.48.

With LHNETQLIHVYLPLTSHILRAFVN [Q3N], the protein stability index stood at 2.96.

For LHEETQLIHVYLPLTSHILRAFVN [Q3E], the protein stability index was found to be 2.55.

Take LHLETQLIHVYLPLTSHILRAFVN [Q3L]: the protein stability index turned out to be 2.24.

On to LHQKTQLIHVYLPLTSHILRAFVN [E4K], for which the protein stability index stood at 4.66.

As for LHQTTQLIHVYLPLTSHILRAFVN [E4T], the protein stability index came to 1.4.

Turning to LHQFTQLIHVYLPLTSHILRAFVN [E4F], the protein stability index was found to be 2.34.

As for LHQPTQLIHVYLPLTSHILRAFVN [E4P], the protein stability index worked out at 2.18.

LHQVTQLIHVYLPLTSHILRAFVN [E4V]: the protein stability index came out at 3.22.

Take LHQWTQLIHVYLPLTSHILRAFVN [E4W]: the protein stability index stood at 1.8.

LHQQTQLIHVYLPLTSHILRAFVN [E4Q]: the protein stability index stood at 3.2.

Regarding LHQRTQLIHVYLPLTSHILRAFVN [E4R], the protein stability index came out at 2.25.

For LHQITQLIHVYLPLTSHILRAFVN [E4I], the protein stability index was 2.46.

For LHQMTQLIHVYLPLTSHILRAFVN [E4M], the protein stability index was determined as 2.04.

With LHQNTQLIHVYLPLTSHILRAFVN [E4N], the protein stability index was determined as 3.07.

LHQHTQLIHVYLPLTSHILRAFVN [E4H]: the protein stability index stood at 1.82.

For LHQYTQLIHVYLPLTSHILRAFVN [E4Y], the protein stability index is 2.38.

For the variant LHQGTQLIHVYLPLTSHILRAFVN [E4G], the protein stability index is 2.64.

With LHQLTQLIHVYLPLTSHILRAFVN [E4L], the protein stability index was 2.8.

LHQCTQLIHVYLPLTSHILRAFVN [E4C]: the protein stability index turned out to be 1.83.

LHQATQLIHVYLPLTSHILRAFVN [E4A]: the protein stability index came out at 1.83.

On to LHQECQLIHVYLPLTSHILRAFVN [T5C], for which the protein stability index came out at 3.39.

Turning to LHQERQLIHVYLPLTSHILRAFVN [T5R], the protein stability index amounted to 2.75.

On to LHQEAQLIHVYLPLTSHILRAFVN [T5A], for which the protein stability index is 2.03.

With LHQEWQLIHVYLPLTSHILRAFVN [T5W], the protein stability index worked out at 2.22.

For the variant LHQEPQLIHVYLPLTSHILRAFVN [T5P], the protein stability index is 1.66.

In the case of LHQEIQLIHVYLPLTSHILRAFVN [T5I], the protein stability index came to 3.8.

Consider LHQENQLIHVYLPLTSHILRAFVN [T5N], for which the protein stability index was determined as 3.51.

Regarding LHQEMQLIHVYLPLTSHILRAFVN [T5M], the protein stability index is 2.39.

As to LHQEYQLIHVYLPLTSHILRAFVN [T5Y], the protein stability index amounted to 1.85.

Regarding LHQEHQLIHVYLPLTSHILRAFVN [T5H], the protein stability index came out at 2.17.

LHQEFQLIHVYLPLTSHILRAFVN [T5F]: the protein stability index is 2.83.

In the case of LHQEEQLIHVYLPLTSHILRAFVN [T5E], the protein stability index was found to be 1.98.

For LHQEDQLIHVYLPLTSHILRAFVN [T5D], the protein stability index came out at 1.78.

For the variant LHQELQLIHVYLPLTSHILRAFVN [T5L], the protein stability index came out at 3.03.

As to LHQEGQLIHVYLPLTSHILRAFVN [T5G], the protein stability index worked out at 2.26.

For the variant LHQEVQLIHVYLPLTSHILRAFVN [T5V], the protein stability index is 4.08.

As for LHQETKLIHVYLPLTSHILRAFVN [Q6K], the protein stability index is 1.7.

For the variant LHQETGLIHVYLPLTSHILRAFVN [Q6G], the protein stability index was 2.55.

As for LHQETNLIHVYLPLTSHILRAFVN [Q6N], the protein stability index was found to be 1.6.

Consider LHQETWLIHVYLPLTSHILRAFVN [Q6W], for which the protein stability index was determined as 3.31.

With LHQETCLIHVYLPLTSHILRAFVN [Q6C], the protein stability index stood at 2.63.

On to LHQETILIHVYLPLTSHILRAFVN [Q6I], for which the protein stability index was 2.75.

As for LHQETRLIHVYLPLTSHILRAFVN [Q6R], the protein stability index came to 3.29.

On to LHQETFLIHVYLPLTSHILRAFVN [Q6F], for which the protein stability index was determined as 2.33.

LHQETDLIHVYLPLTSHILRAFVN [Q6D]: the protein stability index was determined as 2.01.

For LHQETLLIHVYLPLTSHILRAFVN [Q6L], the protein stability index was determined as 3.52.

For LHQETMLIHVYLPLTSHILRAFVN [Q6M], the protein stability index is 2.2.

As for LHQETPLIHVYLPLTSHILRAFVN [Q6P], the protein stability index was found to be 2.41.

On to LHQETSLIHVYLPLTSHILRAFVN [Q6S], for which the protein stability index stood at 2.04.

As for LHQETELIHVYLPLTSHILRAFVN [Q6E], the protein stability index turned out to be 2.88.

Consider LHQETVLIHVYLPLTSHILRAFVN [Q6V], for which the protein stability index was 3.73.

Take LHQETHLIHVYLPLTSHILRAFVN [Q6H]: the protein stability index was 2.75.

These data come from the supplement of paper PMC10567573.
